The source of these data is article PMC11408249, “Non-invasive in vivo imaging of changes in Collagen III turnover in myocardial fibrosis” (npj Imaging, 2024).

Residues, ends and D or L forms follow the SMILES beside them. *: point of attachment. DOTA = O=C(O)CN1CCN(CC(=O)O)CCN(CC(=O)*)CCN(CC(=O)O)CC1

Details of the series: species or system mice. The conditions noted are these: mouse, in vivo, iv. On the procedure: Gallium-68 (^68Ga) was eluted from the generators onsite at the time of the experiments. Radiolabelling of the respective DOTAMA-CBP compound was performed as follows: DOTAMA-CBPs were dissolved in water (Baxter water for irrigation) to a final concentration 4 mg/mL. In an Eppendorf, 25 µL of the DOTAMA-CBP solution was added. Sodium acetate (30%NaOAc, 20 µL, pH 5) buffer was added to this solution followed by the addition of 200 µL ^68Ga (~100 MBq). The solution was then heated to 50 °C for 30 min. After the reaction was removed from heat, the pH was adjusted to pH 7 by adding sodium bicarbonate (1 M, 10 µL). Labelling efficiency was followed by radio thin-layer chromatography (TLC) and HPLC. Radio TLCs were performed using silica gel IBF-2 Baker plates, 10% NH4OAc 50:50 in MeOH with 5 µL of the sample added. For the HPLC, a C18 column was used (MeCN + 0.1% TFA and H2O + 0.1% TFA, gradient) with 10 µL of the sample measured.
In vivo biodistribution imaging was carried out using a positron emission tomography/computed tomography (PET/CT) scanner (NanoPET/CT scanner; Mediso, Hungary. Male apolipoprotein E knockout (ApoE^−/−) were anesthetised with 4% isoflurane mixed with 1% medical oxygen and maintained at 2% isoflurane for the PET/CT experiment. Mice were injected intravenously (i.v.) with either ^68Ga-DOTAMA-CBP1 or ^68Ga-DOTAMA-CBP2 (12MBq/mouse for both probes). To verify anatomical structures, CT images were obtained after the PET imaging with a 55 kVp voltage. PET images were acquired continuously up to 90 min post-injection with a 256 × 256 matrix size and a resolution of 1 mm/pixel. PET and CT images were reconstructed using the manufacturer software with a voxel size of 0.4 mm and analysed with a VivoQuant 2.5 software (Invicro, Boston, MA, USA). The data acquired with the CBP1 and CBP2 imaging probes were reconstructed in 15-minute bins up to 90 min. The PET/CT images were merged using the software’s automated fusion function. Additionally, the software was used for region-of-Interest (ROI) analysis and results were reported as %ID/g for each organ. Following the in vivo PET/CT imaging, the animals were euthanised and tissues extracted for ex vivo gamma counting (1282 CompuGamma gamma counting, LKB Wallac, Finland).

In the case of `CSCC[C@H](NC(=O)[C@H](CCCNC(=N)N)NC(=O)[C@H](CC(C)C)NC(=O)[C@@H]1CCCN1C(=O)[C@H](Cc1ccccc1)NC(=O)[C@H](CCC(=O)O)NC(=O)[C@@H](NC(=O)CN1CCN(CC(=O)O)CCN(CC(=O)O)CCN(CC(=O)O)CC1)[C@@H](C)O)C(=O)N[C@@H](CCCNC(=N)N)C(=O)N[C@@H](CC(=O)O)C(=O)N[C@@H](Cc1c[nH]c2ccccc12)C(=O)N[C@@H](CC(C)C)C(=O)N[C@@H](CCCCN)C(=O)N[C@@H](CC(N)=O)C(=O)O` [^68Ga-DOTAMA-CBP2, metal not drawn] ({DOTA}-TEFPLRMRDWLKN-OH), the “route of elimination (in words)” value is “renal excretion”, the “time within which most of the probe is eliminated from the blood (first phase clearance)” value was 15 to 30 min and the “unspecific uptake in tissues (in words)” value is “no significant unspecific uptake in tissues”.

With `CC(C)[C@H](NC(=O)[C@H](CCC(=O)O)NC(=O)[C@H](CO)NC(=O)[C@H](CCCCN)NC(=O)[C@H](CCCNC(=N)N)NC(=O)[C@H](C)NC(=O)[C@H](CC(=O)O)NC(=O)CN1CCN(CC(=O)O)CCN(CC(=O)O)CCN(CC(=O)O)CC1)C(=O)N[C@@H](CCC(N)=O)C(=O)N[C@@H](CCCCN)C(=O)O` [^68Ga-DOTAMA-CBP1, metal not drawn] ({DOTA}-DARKSEVQK-OH), the “route of elimination (in words)” value was “renal excretion”, the “time within which most of the probe is eliminated from the blood (first phase clearance)” value was in the range of 15 to 30 min and the “unspecific uptake in tissues (in words)” value was “no significant unspecific uptake in tissues”.
